Columns and labels:
GST-FBXA-215 FL = biological target: T1, GST-FBXA-215 FL (Caenorhabditis elegans, UniProt A0A8S4Q9N7 1-401); assay: EMSA; 50 mM Tris-HCl pH 7.5, 150 mM NaCl, 1 mM DTT, protease inhibitors, 2.5% glycerol, 77.3 nM DNA, 25 C 15 min; native 1.5% agarose gel in TBE at 4 C, SYBR Gold stain; details: protein: recombinant; tags: N-terminal GST; blunt
T1 sequence: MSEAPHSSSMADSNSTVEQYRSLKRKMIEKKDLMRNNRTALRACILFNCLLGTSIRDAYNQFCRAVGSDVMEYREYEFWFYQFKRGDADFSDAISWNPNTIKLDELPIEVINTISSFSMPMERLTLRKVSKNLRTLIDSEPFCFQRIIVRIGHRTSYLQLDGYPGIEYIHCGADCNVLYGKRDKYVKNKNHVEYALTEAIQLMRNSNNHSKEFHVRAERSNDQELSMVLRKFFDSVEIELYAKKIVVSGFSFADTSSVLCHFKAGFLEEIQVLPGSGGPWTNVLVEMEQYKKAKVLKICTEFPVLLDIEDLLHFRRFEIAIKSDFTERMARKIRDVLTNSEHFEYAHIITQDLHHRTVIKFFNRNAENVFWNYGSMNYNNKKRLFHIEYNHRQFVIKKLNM

GST-FBXA-192 FL = biological target: T2, GST-FBXA-192 FL (Caenorhabditis elegans, UniProt Q9XUX2 1-401); assay: as above; details: protein: recombinant; tags: N-terminal GST; blunt
T2 sequence: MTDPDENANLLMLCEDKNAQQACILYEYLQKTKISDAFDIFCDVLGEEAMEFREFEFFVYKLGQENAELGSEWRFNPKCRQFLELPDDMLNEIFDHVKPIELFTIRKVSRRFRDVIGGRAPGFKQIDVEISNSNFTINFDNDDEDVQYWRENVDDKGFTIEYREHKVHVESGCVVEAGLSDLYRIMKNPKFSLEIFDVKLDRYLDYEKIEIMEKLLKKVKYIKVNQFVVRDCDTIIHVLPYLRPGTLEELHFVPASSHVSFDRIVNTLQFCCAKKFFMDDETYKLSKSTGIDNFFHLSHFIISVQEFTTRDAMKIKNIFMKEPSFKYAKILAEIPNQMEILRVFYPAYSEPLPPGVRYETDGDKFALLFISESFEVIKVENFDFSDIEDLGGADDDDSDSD

B1: Mos1 right TIR (IRR100) (dsDNA)
DNA 1: TTTCTTTTTCCACAAAATTTAACGTGTTTTTTGATTTAAAAAAAACGACATTTCATACTTGTACACCTGA
DNA 2: TCAGGTGTACAAGTATGAAATGTCGTTTTTTTTAAATCAAAAAACACGTTAAATTTTGTGGAAAAAGAAA
B1: no binding (GST-FBXA-215 FL); no binding (GST-FBXA-192 FL).

— article PMC12062965, “Transposable Elements Drive Regulatory and Functional Innovation of F-box Genes”
